Columns and labels:
[1] = biological target: G3BP1 NTF2 domain (human) (UniProt Q13283)
[2] = biological target: G3BP2 NTF2 domain (human) (UniProt Q9UN86)
USP7 (human) = USP7 (human) (UniProt Q93009)
[3] = biological target: MAP1LC3C ATG8 domain (human) (UniProt Q9BXW4)
MAP1LC3C ATG8 domain (human), sequence (Q9BXW4 1-126): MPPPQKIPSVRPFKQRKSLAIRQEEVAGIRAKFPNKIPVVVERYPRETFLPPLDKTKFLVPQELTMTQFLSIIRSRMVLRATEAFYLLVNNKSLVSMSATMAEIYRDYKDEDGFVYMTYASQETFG

USP7 (human), sequence (Q93009 whole entry, the tested form may be a part): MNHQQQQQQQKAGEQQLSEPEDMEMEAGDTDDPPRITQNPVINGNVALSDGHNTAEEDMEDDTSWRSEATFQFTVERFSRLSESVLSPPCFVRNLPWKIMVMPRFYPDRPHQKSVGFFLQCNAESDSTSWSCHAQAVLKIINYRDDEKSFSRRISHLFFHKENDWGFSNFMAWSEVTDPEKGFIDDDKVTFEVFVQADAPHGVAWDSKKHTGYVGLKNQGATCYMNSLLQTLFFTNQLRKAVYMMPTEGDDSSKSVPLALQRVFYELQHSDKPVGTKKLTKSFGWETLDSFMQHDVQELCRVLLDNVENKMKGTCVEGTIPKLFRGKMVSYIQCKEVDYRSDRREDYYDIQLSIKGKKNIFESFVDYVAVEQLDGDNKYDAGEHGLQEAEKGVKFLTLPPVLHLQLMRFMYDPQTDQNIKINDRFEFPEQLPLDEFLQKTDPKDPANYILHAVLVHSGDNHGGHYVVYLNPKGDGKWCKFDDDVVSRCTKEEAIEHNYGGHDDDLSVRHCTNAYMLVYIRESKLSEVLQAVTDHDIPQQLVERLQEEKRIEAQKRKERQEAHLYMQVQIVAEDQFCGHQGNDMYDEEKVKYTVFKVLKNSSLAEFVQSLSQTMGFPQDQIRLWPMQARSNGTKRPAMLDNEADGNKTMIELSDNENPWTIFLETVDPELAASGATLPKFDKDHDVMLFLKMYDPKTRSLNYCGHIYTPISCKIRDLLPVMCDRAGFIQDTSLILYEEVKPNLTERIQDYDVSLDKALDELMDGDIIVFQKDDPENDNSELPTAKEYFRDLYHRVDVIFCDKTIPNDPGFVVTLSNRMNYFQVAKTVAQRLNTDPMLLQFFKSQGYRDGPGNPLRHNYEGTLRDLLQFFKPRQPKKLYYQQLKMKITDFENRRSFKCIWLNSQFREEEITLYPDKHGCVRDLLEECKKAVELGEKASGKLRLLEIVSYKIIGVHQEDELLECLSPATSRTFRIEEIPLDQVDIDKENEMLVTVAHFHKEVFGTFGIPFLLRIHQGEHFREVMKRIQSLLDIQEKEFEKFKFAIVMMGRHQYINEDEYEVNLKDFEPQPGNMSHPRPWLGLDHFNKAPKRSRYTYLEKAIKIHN
G3BP1 NTF2 domain (human), sequence (Q13283 11-133): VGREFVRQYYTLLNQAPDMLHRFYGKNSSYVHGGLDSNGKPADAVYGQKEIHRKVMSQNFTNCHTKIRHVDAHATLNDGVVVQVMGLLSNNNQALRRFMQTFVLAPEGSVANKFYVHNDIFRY
G3BP2 NTF2 domain (human), sequence (Q9UN86 11-133): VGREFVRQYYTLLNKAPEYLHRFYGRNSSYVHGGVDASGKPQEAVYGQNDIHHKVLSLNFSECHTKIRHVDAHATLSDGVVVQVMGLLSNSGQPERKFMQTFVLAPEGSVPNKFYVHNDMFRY

Substance | IC50 [1] [µM] | IC50 [2] [µM] | IC50 (USP7 (human)) [µM] | Ki (USP7 (human)) [µM] | IC50 [3] [µM] | Ki [3] [µM]
N peptide 12-26 (Sars-CoV2) | 17 | 10 |  |  |  | 
N peptide 405-419 (Sars-CoV2) |  |  | 1050 | 150 |  | 
NSP3 peptide 2019-2034 (Sars-CoV2) |  |  | 270 | 37 | 1530 | 210
